Common to all, as to assay: purified protein
Holding throughout (conditions): NADPH 0.1 mM, pH 7.4, 25 °C, 10 mM beta-mercaptoethanol

Substrate in data set [1]: O=Cc1ccccc1
The data set is classed as biochemical, Echinochloa colona.

Substrate in data set [2]: O=Cc1ccccc1
The data set is classed as biochemical, Zea mays.

Substrate in data set [3]: O=Cc1ccccc1
The data set is classed as biochemical, Oryza sativa.

In article PMC9966811, “Comparison of Glyphosate-Degradation Ability of Aldo-Keto Reductase (AKR4) Proteins in Maize, Soybean and Rice” (International Journal of Molecular Sciences, 2023) one finds Km and kcat data, which are given here for 3 proteins.

B1: EcAKR4 (Echinochloa colona) (protein)
chain: MARHFVLNTGAKIPSVGLGTWQSDPGVVGDAVYAAVKAGYRHIDCARVYGNEKEIGLALKKLFEEGVVKREDLFITSKLWNDHHAPEDVPEALNESLKDLQLDYLDLYLIHWPFRVKKGTNTSPENFITPDIPATWGAMEKLYDAGKARAIGVSNFSSKKLGDLLAVARVPPAVDQVECHPGWQQTKLHNFCQSTGVHLSAYSPLGSPGTTWMNGNVLKEPVIISIAEKLGKTPAQVALRWNIQMGHSVLPKSTNEERIKQNLDVYDWSIPDDLLAKFSEIKQARLLRGNFIVNPQSVYKTHEELWDGEL
notes: full CDS from leaf cDNA in pET32a as printed (about 40 kD on gel), E. coli BL21, Ni-NTA
As to B1, in the data set “purified protein [1]”, the Km is 870 ± 250 µM and the kcat was determined as 0.7052 ± 0.0253 s⁻¹.

B2: ZmAKR4 (Zea mays) (protein)
chain: MARHFVLNTGAKIPSVGLGTWQSDPGVVGNAVYAAVKAGYRHIDCARVYGNEKEIGLALKKLFEEGVVKREDLFITSKLWNDHHAPEDVPEALNDSLNDLQLEYLDLYLIHWPFRVKKGTNTSPENFVTPDFPATWGAMEKLYDAGKARAIGVSNFSSKKLGDLLAVARVPPAVDQVECHPGWQQTKLHSFCQSTGVHLTAYSPLGSPGTTWMNGNVLKEPIIISIAEKLGKTSAQVALRWNIQMGHSVLPKSTNEERIKQNLDVYDWSIPDDLLAKFSEIKQARLLRGNFIVNPESVYKTHEELWDGEL
notes: full CDS from leaf cDNA in pET32a (vector tag, about 50 kD), E. coli BL21, Ni-NTA
Consider B2, for which, in the data set “purified protein [2]”, the Km was determined as 1060 ± 290 µM and the kcat amounted to 0.7522 ± 0.0293 s⁻¹.

B3: OsAKR4-1 (Oryza sativa Japonica Group) (protein)
chain: MAKHFVLNTGAKIPSVGLGTWQSDPGVVGDAVYAAVKAGYRHIDCARMYKNENEVGIALKKLFEEGVVKREDLFITSKLWCDCHAPEDVPESLDKTLSDLQLEYLDLYLIHWPFRVKKGSGISNTEDYIPPDIPSTWGAMEKLYDSGKSRAIGVSNFSSKKLGDLLAVACVPPAVDQVECHPGWQQTKLHNFCQSTGVHLSAYSPLGSPGSTWMNSNVLKESVIISIAEKLGKTPAQVALHWNIQMGHSVLPKSVTEERIKQNIDVYDWSIPEDLLVKFSEIKQVRLLRGDVIVNPHSVYKTHEELWDGEI
notes: as for B2
In the case of B3, in “purified protein [3]”, the Km is 2476 ± 540 µM and the kcat came to 0.676 ± 0.0363 s⁻¹.
